Experimental data published in publication PMC7496822 (Arthritis & Rheumatology (Hoboken, N.j.), 2020).
Blank lines part the entries; values can stand above or below the binder they belong to.

What was measured:
Experiment in all cases: ELISA
SSA/Ro60 = SSA/Ro60 (Homo sapiens (assumed), UniProt P10155)
[1] = target: insulin from bovine pancreas (Bos taurus, UniProt P01317)
SSA/Ro52 = SSA/Ro52 (Homo sapiens (assumed), UniProt P19474)
actin from bovine muscle = actin from bovine muscle (Bos taurus, UniProt P68138)

Chain of SSA/Ro60 (P10155 whole entry): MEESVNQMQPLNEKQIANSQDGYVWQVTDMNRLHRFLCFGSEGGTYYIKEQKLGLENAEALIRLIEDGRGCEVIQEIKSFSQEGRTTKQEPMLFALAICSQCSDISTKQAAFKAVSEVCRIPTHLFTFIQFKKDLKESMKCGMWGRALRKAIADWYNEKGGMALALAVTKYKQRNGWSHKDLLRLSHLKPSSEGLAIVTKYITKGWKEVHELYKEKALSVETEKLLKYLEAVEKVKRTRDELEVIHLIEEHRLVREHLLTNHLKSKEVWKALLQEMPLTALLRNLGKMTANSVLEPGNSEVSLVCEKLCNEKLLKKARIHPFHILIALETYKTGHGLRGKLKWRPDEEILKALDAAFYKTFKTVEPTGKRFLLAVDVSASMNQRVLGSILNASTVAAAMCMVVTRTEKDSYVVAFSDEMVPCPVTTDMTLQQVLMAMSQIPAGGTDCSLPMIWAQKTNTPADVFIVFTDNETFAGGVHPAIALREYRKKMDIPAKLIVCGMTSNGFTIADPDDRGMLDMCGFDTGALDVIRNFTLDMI
Chain of insulin from bovine pancreas (P01317 whole entry, looked up): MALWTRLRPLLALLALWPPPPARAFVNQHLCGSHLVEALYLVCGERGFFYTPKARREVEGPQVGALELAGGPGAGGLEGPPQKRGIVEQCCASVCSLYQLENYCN
Chain of SSA/Ro52 (P19474 whole entry): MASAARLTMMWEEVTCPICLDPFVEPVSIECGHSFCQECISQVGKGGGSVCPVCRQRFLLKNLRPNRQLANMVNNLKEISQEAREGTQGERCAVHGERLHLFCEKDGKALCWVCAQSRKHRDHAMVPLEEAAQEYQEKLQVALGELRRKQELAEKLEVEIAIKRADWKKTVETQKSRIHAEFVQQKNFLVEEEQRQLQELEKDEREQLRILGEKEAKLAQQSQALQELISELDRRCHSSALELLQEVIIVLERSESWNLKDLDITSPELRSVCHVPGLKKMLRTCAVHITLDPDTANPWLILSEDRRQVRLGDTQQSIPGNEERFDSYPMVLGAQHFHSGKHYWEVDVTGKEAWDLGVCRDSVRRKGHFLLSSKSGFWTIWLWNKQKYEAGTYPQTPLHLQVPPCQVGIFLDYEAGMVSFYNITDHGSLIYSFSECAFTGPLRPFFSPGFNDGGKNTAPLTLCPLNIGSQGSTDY

- binding result (SSA/Ro60): no binding (tested: up to 1 μg/ml IgM)
- binding result [1]: no binding (tested: up to 1 μg/ml IgM)
- binding result (SSA/Ro52): no binding (tested: up to 1 μg/ml IgM)
- binding result (actin from bovine muscle): no binding (tested: up to 1 μg/ml IgM)
B1: recombinant IgM of MALT lymphoma salivary gland sample M5 (antibody, V domains shown)
VH: EVQLVESGGGLVQPGGSLRLSCAASGFTFSSYWMSWVRQAPGKGLEWVANIKEDGGGKYYVDSVKGRFTISRDNAKNSLYLQMNSLRVEDTAVYYCARGDFWSGDYIDAFDIWGQGTLVTVSS
VL: EIVMTQSPATLSVSPGERATLSCRASQSVSSNLAWYQQKPGQPPRLLIYGASTRATGIPARFSGGGSGTEFTLTISSLQSEDFALYYCQHYNNWPPWTFGQGTKVEIK

- binding result (SSA/Ro60): no binding (tested: up to 1 μg/ml IgM)
- binding result [1]: no binding (tested: up to 1 μg/ml IgM)
- binding result (SSA/Ro52): no binding (tested: up to 1 μg/ml IgM)
- binding result (actin from bovine muscle): no binding (tested: up to 1 μg/ml IgM)
B2: recombinant IgM of MALT lymphoma salivary gland sample M22 (antibody, V domains shown)
VH: QVQLVQSGAEVKKSGSSVKVSCKASGGTFNNYAINWVRQAPGQGLEWMGGIIPIFGTPNYAQKFQGRVAITADKSTGTAYMELSSLRSEDTAVYYCARGSNDYGDNVPVQPYHYWGQGTLVTVSS
VL: EIVLTQSPGTLSLSPGERATLSCRASQSISSTYLAWYQQKPGQAPRLLIYGASSRATGIPDRFSGSGSGTDFTLTISRLEPEDFAMYYCQQFGSSPQTFGQGTKLEIK

- binding result (SSA/Ro60): no binding (tested: up to 1 μg/ml IgM)
- binding result [1]: no binding (tested: up to 1 μg/ml IgM)
- binding result (SSA/Ro52): no binding (tested: up to 1 μg/ml IgM)
- binding result (actin from bovine muscle): no binding (tested: up to 1 μg/ml IgM)
B3: recombinant IgM of MALT lymphoma salivary gland sample M11 (antibody, V domains shown)
VH: QVQLVQSGAEVKKPGSSVKVSCRASGGTFSRYAISWVRQAPGQGLEWMGGIIPLFNTPNYAQKFQGRVTIIADESTSTAYMELSSLRSDDTAVYYCAREGIAAAVNPFDYWGQGTLVTVSS
VL: not shown
